Test results as given in paper doi:10.1101/2024.05.10.593077.
Values joined by “and” are separate entries in the source; they are usually repeats but may differ in a detail not shown here. Identical values can stand only once.

Key:
Human FcγRI (WT) (human) [1] = molecular target: Human FcγRI (WT) (human) (UniProt P12314); experiment: SPR
[2] = molecular target: Trastuzumab ΔP230 (IgG1 with deletion of Pro230 in the lower hinge) (human); experiment: SEC
Human FcγRI (WT) (human) [3] = molecular target: Human FcγRI (WT) (human) (UniProt P12314); experiment: high-speed atomic force microscopy

UniProt P12314, sequence (P12314 16-292): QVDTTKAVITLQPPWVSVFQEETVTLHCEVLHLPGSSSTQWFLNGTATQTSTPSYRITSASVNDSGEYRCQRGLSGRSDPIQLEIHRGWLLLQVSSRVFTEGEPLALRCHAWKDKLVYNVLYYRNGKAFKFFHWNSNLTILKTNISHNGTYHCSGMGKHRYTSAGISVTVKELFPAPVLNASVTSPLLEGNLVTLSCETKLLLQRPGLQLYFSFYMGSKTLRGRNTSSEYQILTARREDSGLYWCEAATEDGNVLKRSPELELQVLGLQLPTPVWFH

Kd (Human FcγRI (WT) (human) [1]) [nM] | ratio monomer:dimer (monomer:dimer) [2] | stoichiometry N (ΔP230:FcγRI (mol:mol)) (Human FcγRI (WT) (human) [3]) | stoichiometry N (IgG1 WT:FcγRI) (Human FcγRI (WT) (human) [3]) | Substance
0.92 | – | – | – | Trastuzumab CSCS (IgG1 with the double substitution Cys226Ser and Cys229Ser) (antibody)
23.5 | 6 | 1 and 2 | – | Trastuzumab ΔP230 (IgG1 with deletion of Pro230 in the lower hinge) (antibody)
0.89 | – | – | 1 | Trastuzumab WT, anti-HER2 humanized IgG1 (antibody)
